From US20210070872A1 (AGENUS, published 2021)
Numbering of substitutions follows the chain as printed.

T1: biotinylated GITR (human, UniProt Q9Y5U5 26-161, limits assumed, biotinylated (sites not given))
T1 construct: also called GITR-bio; Biotin-GITR
T1 sequence: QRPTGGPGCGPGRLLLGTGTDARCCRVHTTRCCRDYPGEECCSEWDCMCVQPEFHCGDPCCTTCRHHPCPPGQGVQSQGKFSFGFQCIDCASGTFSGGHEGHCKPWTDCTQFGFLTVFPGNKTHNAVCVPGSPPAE

T2: GITR antigen (R&D systems, di-sulfide-linked homodimer; 689-GR) (human, UniProt Q9Y5U5 26-161)
T2 construct: Bought
T2 sequence: T1 sequence

B1: germline variant antibody 85 (H1917E02 / K1917E02) (antibody, V domains shown)
VH: QVQLVQSGAEVKKPGASVKVSCKASGYTFTEYAMYWVRQAPGQGLEWMGVIRTYSGGVTYNQKFKDRATMTVDTSISTAYMELSRLRSDDTAVYYCAKSGTVRGFAYWGQGTLVTVSS
VL: DIVMTQSPDSLAVSLGERATINCKSSQSLLNSSNQKNYLSWYHQKPGQPPKLLIYWASTRESGVPDRFSGSGSGTDFTLTISSVQAEDVAVYYCQNDYSYPYTFGQGTKLEIK
notes: IGHG1/IGKC expression vectors; measured from CHO culture supernatant; also called Antibody ID 85
B2: germline variant antibody 21 (H1916C03 / K1916C03) (antibody, V domains shown)
VH: QVQLVQSGTEVKKPGASVKVSCKGSGYTFTGYVMHWVRQAPGQGMEWIGVIRTFSGDVSYNQKFRERVTMTVDTSISTAYMELSRLRSDDTAVYYCAKSGTVRGFAYWGQGTLVTVSS
VL: B1 VL with S33G, S40T, Y93H
notes: IGHG1/IGKC expression vectors; measured from CHO culture supernatant; also called Antibody ID 21
B3: germline variant antibody 37 (H1916D07 / K1916D07) (antibody, V domains shown)
VH: B1 VH with A9T, A24G, L45M, M48I, V50L, Y54F, G57E, A68V
VL: B1 VL with S33G, S40T, H43Q, S69T, V84L, Y93H, D97E
notes: IGHG1/IGKC expression vectors; measured from CHO culture supernatant; also called Antibody ID 37
B4: germline variant antibody 70 (H1917B04 / K1917B04) (antibody, V domains shown)
VH: B1 VH with A9T, E31G, L45M, M48I, G57D
VL: B1 VL with S33G, H43Q, V84L, Y93H, Y100F
notes: IGHG1/IGKC expression vectors; measured from CHO culture supernatant; also called Antibody ID 70
B5: germline variant antibody 20 (H1916B12 / K1916B12) (antibody, V domains shown)
VH: B2 VH with G24A, G31D, V33A, H35Y, M45L, V58L, E66G
VL: B1 VL with S33G, S40T, H43Q, L52M, I54L, S69T, Y93H
notes: IGHG1/IGKC expression vectors; measured from CHO culture supernatant; also called Antibody ID 20
B6: germline variant antibody 49 (H1916E11 / K1916E11) (antibody, V domains shown)
VH: B1 VH with A9T, A24G, E31G, G57D, K65R, D66E
VL: B1 VL with S33G, S40T, Y93H, Y100F
notes: IGHG1/IGKC expression vectors; measured from CHO culture supernatant; also called Antibody ID 49
B7: germline variant antibody 18 (H1916B09 / K1916B09) (antibody, V domains shown)
VH: B2 VH with G24A, V33A, H35Y, V50L, D57E, S59T, E66G
VL: B1 VL with S40T, L52M, S69T
notes: IGHG1/IGKC expression vectors; measured from CHO culture supernatant; also called Antibody ID 18
B8: germline variant antibody 78 (H1917D01 / K1917D01) (antibody, V domains shown)
VH: B1 VH with A24G, E31D, M48I, R52K, K65R, S88G, Q110R
VL: B1 VL with S33G, S40T, L52M, S69T, Y93H
notes: IGHG1/IGKC expression vectors; measured from CHO culture supernatant; also called Antibody ID 78
B9: germline variant antibody 35 (H1916D05 / K1916D05) (antibody, V domains shown)
VH: B2 VH with T9A, V11A, V33A, H35Y, S59T, E66G
VL: B1 VL with S33G, S40T, S69T
notes: IGHG1/IGKC expression vectors; measured from CHO culture supernatant; also called Antibody ID 35
B10: germline variant antibody 97 (H1917G07 / K1917G07) (antibody, V domains shown)
VH: B2 VH with G31E, V33A, V50L, D57G, V58L, E66D, T74K
VL: B1 VL with S33G, S40T, S69T, Y93H, D97E, Y100F
notes: IGHG1/IGKC expression vectors; measured from CHO culture supernatant; also called Antibody ID 97
B11: germline variant antibody 5 (H1916A06 / K1916A06) (antibody, V domains shown)
VH: B1 VH with A24G, Y35H, V50L, K65R, D66G, A68V
VL: DIVMTQSPDSLAAPGERATINCKSSQSLLNSSNQKNYLTWYHQKPGQPPKLLIYWASTRESGVPDRFTGSGSGTDFTLTISSVQAEDVAVYYCQNEYSFPYTFGQGTKLEIK
notes: IGHG1/IGKC expression vectors; measured from CHO culture supernatant; also called Antibody ID 5
B12: germline variant antibody 42 (H1916E01 / K1916E01) (antibody, V domains shown)
VH: B1 VH with A9T, E31D, M48I, Y54F, G57D, V58L, K65Q, A68V
VL: B1 VL with S33G, H43Q, V84L
notes: IGHG1/IGKC expression vectors; measured from CHO culture supernatant; also called Antibody ID 42
B13: germline variant antibody 94 (H1917G01 / K1917G01) (antibody, V domains shown)
VH: B2 VH with V33A, H35Y, M45L, D57G, S59T, E66D, T74K, L113F
VL: B1 VL with S33G, S40T, H43Q, S69T, Y93H
notes: IGHG1/IGKC expression vectors; measured from CHO culture supernatant; also called Antibody ID 94
B14: germline variant antibody 95 (H1917G05 / K1917G05) (antibody, V domains shown)
VH: B1 VH with A24G, E31D, V50L, T59S, K65R, D66G, A68V, L113F
VL: B1 VL with S33G, S40T, H43Q, L52M, Y93H, Y100F
notes: IGHG1/IGKC expression vectors; measured from CHO culture supernatant; also called Antibody ID 95
B15: germline variant antibody 96 (H1917G06 / K1917G06) (antibody, V domains shown)
VH: B1 VH with A24G, L45M, V58L, K65R, A68V
VL: B1 VL with V84L, Y93H
notes: IGHG1/IGKC expression vectors; measured from CHO culture supernatant; also called Antibody ID 96
B16: germline variant antibody 91 (H1917F03 / K1917F03) (antibody, V domains shown)
VH: B1 VH with A9T, A24G, Y35H, L45M, V50L, T59S, K65Q, D66E
VL: B1 VL with S33G, H43Q, Y93H, D97E, Y100F
notes: IGHG1/IGKC expression vectors; measured from CHO culture supernatant; also called Antibody ID 91
B17: germline variant antibody 107 (H1917H09 / K1917H09) (antibody, V domains shown)
VH: B1 VH with A24G, E31G, G57D, T59S, K65R, A68V
VL: B1 VL with S33G, S69T
notes: IGHG1/IGKC expression vectors; measured from CHO culture supernatant
B18: germline variant antibody 102 (H1917H02 / K1917H02) (antibody, V domains shown)
VH: B1 VH with A9T, E31G, M48I, T59S, K65R, A68V
VL: B1 VL with H43Q, S69T
notes: IGHG1/IGKC expression vectors; measured from CHO culture supernatant; also called Antibody ID 102
B19: germline variant antibody 92 (H1917F05 / K1917F05) (antibody, V domains shown)
VH: B1 VH with A24G, V50L, Y54F, K65Q, D66G, R87Q
VL: B1 VL with S33G, S40T, L52M, D76N, Y93H
notes: IGHG1/IGKC expression vectors; measured from CHO culture supernatant; also called Antibody ID 92
B20: germline variant antibody 105 (H1917H07 / K1917H07) (antibody, V domains shown)
VH: B1 VH with A24G, V50L, Y54F, T59S, D66G, A68V
VL: B1 VL with S33G, H43Q
notes: as for B17
B21: germline variant antibody 101 (H1917H01 / K1917H01) (antibody, V domains shown)
VH: B1 VH with E31D, Y35H, V50L, Y54F, T59S, K65Q, A68V, T74K
VL: B1 VL with S40T, Y93H, Y100F
notes: as for B17
B22: germline variant antibody 86 (H1917E03 / K1917E03) (antibody, V domains shown)
VH: B1 VH with A24G, L45M, K65R
VL: B1 VL with S33G, S40T
notes: IGHG1/IGKC expression vectors; measured from CHO culture supernatant; also called Antibody ID 86
B23: Hum231#1 (antibody, V domains shown)
VH: B1 VH with A24G, E31D, M48I, G57D, T74K
VL: DIVMTQSPPTLSLSPGERVTLSCKSSQSLLNSGNQKNYLTWYQQKPGQAPRLLIYWASTRESGIPARFSGSGSGTDFTLTISSLQPEDFAVYHCQNDYSYPYTFGQGTKLEIK
notes: Variable regions cloned with IGHG1 (also IGHG4 and Fab vectors exist) and IGKC constant regions; format in each assay not always stated; also called humanized variant Hum231#1 (IGHV1-2*02 and IGK3-7*02)

Molecular target: T1, biotinylated GITR
Assay: BLI (Octet), biotin-GITR on streptavidin tips, antibody supernatant
Experimental: Several hundred germlined antibodies were selected based on binding kinetics as determined by Octet measurements (Octet RED 96 system; ForteBio™ Inc., Menlo Park, Calif.). The experimental procedure was configured according to the instruction manual of the instrument. Biotin-GITR was bound to Streptavidin biosensor (SA) and PBS (pH 7.4) was used as a blank control. Briefly, the interaction analyses were conducted at 30° C. in running buffer (PBS, 0.05% Tween, pH7.4). Sensor tips were pre-wet for 10 minutes in running buffer immediately prior to use, and the micro plates used in the Octet were filled with 200 μl of sample or buffer per well and agitated at 800 rpm. For the experiments, commercially available precoated SA tips were used. Biotinylated GITR was loaded onto the ForteBio SA fibers in PBS pH7.4 for 10 minutes and washed for 4 minutes. For the association phase, the ligand-coated SA tips were immersed for 5 minutes in cell culture supernatant that was diluted 1:10 in running buffer prior to the measurement. Dissociation of the antibody-antigen complex was measured in wells containing the Octet buffer alone for 5 minutes. After each run, the tips were regenerated with Glycine (10 mM, pH 2.0). Affinity, Kₒₙ and Koff were determined with Octet evaluation software v6.3 using a 1:1 binding model with local full fitting.

Kd [nM] | koff [s⁻¹] | kon [M⁻¹ s⁻¹] | Binder
1.28 | 0.00037 | 289000 | B1
8.44 | 0.00261 | 309000 | B2
0.0317 | 0.000242 | 7.64e+06 | B3
2.01 | 0.000879 | 437000 | B4
1.35 | 0.00038 | 283000 | B5
2.09 | 0.000707 | 338000 | B6
3.77 | 0.000824 | 219000 | B7
1 | 0.000327 | 325000 | B8
0.187 | 0.00024 | 1.29e+06 | B9
1.43 | 0.000761 | 534000 | B10
1.63 | 0.000966 | 591000 | B11
0.377 | 0.000157 | 417000 | B12
1.18 | 0.00044 | 372000 | B13
2.21 | 0.000672 | 305000 | B14
1.09 | 0.000373 | 344000 | B15
3.07 | 0.00159 | 520000 | B16
2.21 | 0.000657 | 298000 | B17
1.97 | 0.000632 | 321000 | B18
1.01 | 0.000361 | 357000 | B19
1.38 | 0.000486 | 351000 | B20
0.354 | 0.000332 | 936000 | B21
0.75 | 0.000432 | 577000 | B22

Molecular target: T2, GITR antigen (R&D systems, …)
Assay: SPR (BIAcore T100/T200), antibody captured via anti-human Fab, GITR antigen 40/10/2.5 nM, 1:1 model
Experimental: All interactions were analyzed at 25° C. using 1× DPBS (PAA, H15-002) plus P20 (0.05%, Pierce, 28320) as running buffer. Anti-GITR antibodies (8 μg/ml in running buffer) were captured to the chip surface of a CM5 sensor chip (GE Healthcare, Series S CM5, BR-1005-30) via an immobilized anti-human Fab antibody (GE Healthcare, Fab Capture Kit, 28958325). To detect unspecific interactions of the GITR antigen, antibody capture was only performed in flow cell 2, whereas in flow cell 1 only the capturing antibody was immobilized. In addition, an unrelated antibody (anti-IL-1β; SK48E26; International Publication No. WO 95/001997) was used to assess specificity of GITR binding. After capture of the anti-GITR antibodies GITR antigen (R&D systems, di-sulfide-linked homodimer; 689-GR) was run through both flow cells in different amounts (40 nM, 10 nM and 2.5 nM) for each antibody. Also a blank curve (running buffer only) was included in each run. Association was run for 90 s and dissociation for 600 s with a flow rate of 10 μl/min. After each run a regeneration step was performed with 10 mM Glycine pH2.0 (GE Healthcare, BR-1003-55) for 60 s with 30 μl/min. Binding curves were evaluated using BIAcore® T200 evaluation software version 2.0.1 applying a Langmuir 1:1 model with global fit of Rmax.

Kd [nM] | koff [s⁻¹] | kon [M⁻¹ s⁻¹] | Binder
0.702 | 0.00249 | 3.55e+06 | B23
